According to US20260092115A1 (Chugai, published 2026):
Substitutions are numbered along the chain they refer to.

T1: human CTLA4 (soluble analyte of the Biacore assays of Examples 3-3, 4 and 5) (human, UniProt P16410 36-161)
T1 construct: also called hCTLA4
T1 sequence: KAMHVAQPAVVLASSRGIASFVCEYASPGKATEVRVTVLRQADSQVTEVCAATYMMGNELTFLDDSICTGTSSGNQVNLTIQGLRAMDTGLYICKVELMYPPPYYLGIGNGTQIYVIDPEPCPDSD

B1: 04H1077-G1m/04L1086-lam1 (antibody, human IgG1, lambda, V domains shown)
VH: EVQLVESGGDLVKPGGGLRLSCAASGFTFSSRTMNWVRQAPGKGLEWVSSISTRSGYIYYAESVKGRFTISRDNAKNSLYLQMNSLRAEDTAVYYCARYGKREDMLWVFDYWGQGTLVTVSS
VL: QSALTQPPSASGSPGQTVTISCDGPSTGVGDYNYVHWYQQHPGKAPKLMIYFTSKKPSGVPDRFSGSKSGNTASLTVSGLQAEDEADYFCQTYAAPLGPMFGGGTKLTVLG
B2: 04H1208-G1m/04L1086-lam1 (antibody, human IgG1, lambda, V domains shown)
VH: B1 VH with D10G, G17S, R32K, E62R
VL: B1 VL
B3: 04H1077-G1m/04L1041-lam1 (antibody, human IgG1, lambda, V domains shown)
VH: B1 VH
VL: B1 VL with G28D, Q91S
B4: 04H1077-G1m/04L1067-lam1 (antibody, human IgG1, lambda, V domains shown)
VH: B1 VH
VL: B1 VL with Q91S
B5: 04H1207-G1m/04L1086-lam1 (antibody, human IgG1, lambda, V domains shown)
VH: B1 VH with D10G, G17S, R32K
VL: B1 VL
B6: 04H1077-G1m/04L1034-lam1 (antibody, human IgG1, lambda, V domains shown)
VH: B1 VH
VL: B1 VL with G28D, Y34W, H36S, Q91S
B7: 04H1389-G1m/04L1086-lam1 (antibody, human IgG1, lambda, V domains shown)
VH: B1 VH with D10G, G17S, R32K, R54Q, G56H
VL: B1 VL
B8: 04H1389-G1m/04L1305-k0MT (antibody, human IgG1, kappa)
heavy: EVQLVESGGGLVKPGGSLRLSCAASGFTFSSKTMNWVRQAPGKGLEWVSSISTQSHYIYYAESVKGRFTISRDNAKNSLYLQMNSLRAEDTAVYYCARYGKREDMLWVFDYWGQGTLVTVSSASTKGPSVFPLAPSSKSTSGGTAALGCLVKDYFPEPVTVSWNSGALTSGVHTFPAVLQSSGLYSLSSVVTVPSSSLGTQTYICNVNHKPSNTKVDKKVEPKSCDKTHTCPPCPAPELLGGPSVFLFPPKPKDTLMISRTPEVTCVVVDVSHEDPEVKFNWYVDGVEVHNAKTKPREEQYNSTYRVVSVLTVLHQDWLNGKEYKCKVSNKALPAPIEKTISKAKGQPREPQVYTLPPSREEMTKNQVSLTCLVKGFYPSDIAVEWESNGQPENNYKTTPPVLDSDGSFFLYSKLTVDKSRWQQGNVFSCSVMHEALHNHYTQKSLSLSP
light: DIVMTQSPLSLPVTPGEPASISCDGPSTGVGDYNYVHWYQQKPGQAPRLLIYFTSKKPSGVPDRFSGSGSGTDFTLKISRVEAEDVGVYYCQTYAAPLGPMFGQGTKLEIKRTVAAPSVFIFPPSDEQLKSGTASVVCLLNNFYPREAKVQWKVDNALQSGNSQESVTEQDSKDSTYSLSSTLTLSKADYEKHKVYACEVTHQGLSSPVTKSFNRGEC
B9: 04H1382-G1m/04L1086-lam1 (antibody, human IgG1, lambda, V domains shown)
VH: B1 VH with D10G, G17S, R32K, R54Q, G56H, E62R
VL: B1 VL

The binders below were run against T1, human CTLA4 (soluble analyte of the …) (assay: SPR 37C, Ab on Protein G, 1000 nM CTLA4, ATP 1 uM; ATP 1 uM; binding amount at 1000 nM CTLA4).
Experimental: (§1) Biacore T200 was used to measure the binding of the generated antibodies to human CTLA4. 20 mM ACES (pH 7.4), 150 mM NaCl, 2 mM MgCl₂, 0.05% Tween 20 with ATP added to the desired concentration was used as the running buffer, and the assay was performed at 37° C. First, Protein G (CALBIOCHEM) was immobilized onto a Series S Sensor Chip CM3 (GE Healthcare), and the antibodies were captured by interacting an antibody solution prepared in an ATP-free running buffer with the chip. Next, by interacting with a human CTLA4 solution prepared in a running buffer containing ATP to the desired concentration, or a human CTLA4 solution prepared in a running buffer containing no ATP, the binding ability of the antibody to human CTLA4 in the presence or absence of ATP was evaluated. Chips were regenerated with 25 mM NaOH and 10 mM Glycine-HCl (pH 1.5), and assay was performed by repeatedly capturing antibodies. The dissociation constant of each antibody for CTLA4 was calculated using Biacore T200 Evaluation Software 2.0. Specifically, the binding rate constant ka (L/mol/s) and the dissociation rate constant kd (1/s) were calculated by global fitting of the sensorgrams obtained by the measurement, using a 1:1 Langmuir binding model. The dissociation constant KD (mol/L) was calculated from those values. Alternatively, the dissociation constant KD (mol/L) was calculated by the steady state model. In addition, the binding amount of CTLA4 per unit amount of antibody was calculated by correcting the amount of CTLA4 bound as calculated from the sensorgram obtained by the assay with the amount of antibody captured onto the chip surface.
(§2) The KD values marked with an * in the table were calculated using the steady state model. It was shown that all the variants prepared using 04H0150-G1m/04L0072-lam1 as the parent antibody had enhanced binding in the presence of ATP as compared to 04H0150-G1m/04L0072-lam1.

Binder	Binding to Human CTLA4 (amount per unit antibody)
B1	0.031
B2	0.03
B3	0.023
B4	0.041
B5	0.047
B6	0.007

Each binder was assayed against T1, human CTLA4 (soluble analyte of the …) (assay: SPR 37C, Ab on Protein G, 1000 nM CTLA4, no ATP; no ATP; binding amount at 1000 nM CTLA4).
Experimental: as §1, §2

Binder	Binding to Human CTLA4 (amount per unit antibody)
B1	0.01
B2	0.005
B3	0.006
B4	0.012
B5	0.013
B6	0.004

Each binder was assayed against T1, human CTLA4 (soluble analyte of the …) (assay: SPR 37C, Ab on Protein G, 1000 nM CTLA4, ATP 10 uM; ATP 10 uM; binding amount at 1000 nM CTLA4).
Experimental: as §1, §2

Binder	Binding to Human CTLA4 (amount per unit antibody)
B1	0.106
B2	0.108
B3	0.094
B4	0.131
B5	0.137
B6	0.041

What follows are binders tested against T1, human CTLA4 (soluble analyte of the …) (assay: SPR 37C, Ab on Protein G, 1000 nM CTLA4, ATP 100 uM; ATP 100 uM; binding amount at 1000 nM CTLA4).
Experimental: as §1, §2

Binder	Binding to Human CTLA4 (amount per unit antibody)
B1	0.181
B2	0.17
B3	0.172
B4	0.192
B5	0.196
B6	0.114

Each binder was assayed against T1, human CTLA4 (soluble analyte of the …) (assay: SPR 37C, Ab on Protein G, 1000 nM CTLA4, ATP 10 uM).
Experimental: as §1, with “Next,” for “Biacore T200 was used to measure the binding of the generated antibodies to human CTLA4. 20 mM ACES (pH 7.4), 150 mM NaCl, 2 mM MgCl₂, 0.05% Tween 20 with ATP added to the desired concentration was used as the running buffer, and the assay was performed at 37° C. First, Protein G (CALBIOCHEM) was immobilized onto a Series S Sensor Chip CM3 (GE Healthcare), and the antibodies were captured by interacting an antibody solution prepared in an ATP-free running buffer with the chip. Next,”
(§3) Biacore T200 was used to evaluate the binding of the generated variants to ATP and to human CTLA4. The assay of binding to ATP was performed at 37° C. using 20 mM ACES (pH 7.4), 150 mM NaCl, 2 mM MgCl₂, 0.05% Tween20 as the running buffer. First, Sure Protein A (GE Healthcare) was immobilized onto a Series S Sensor Chip CM3 (GE Healthcare), and the antibodies were captured onto the chip by interacting an antibody solution prepared in the running buffer. Next, the binding ability to the antibody was evaluated by interacting with an ATP solution prepared in the running buffer. Chips were regenerated with 25 mM NaOH and 10 mM Glycine-HCl (pH 1.5) and assay was performed by repeatedly capturing antibodies. For the binding amount of each antibody to ATP, the binding amount of ATP per unit amount of antibody was calculated by correcting the amount of binding when ATP was injected at a concentration of 100 nM with the amount of antibody captured onto the chip surface. Binding to human CTLA4 was measured using Biacore T200 by the method described in Example 3-3.

Binder	Binding to Human CTLA4 (amount per unit antibody)
B7	0.189
B2	0.084
B5	0.111
B8	0.154

What follows are binders tested against T1, human CTLA4 (soluble analyte of the …) (assay: SPR 37C, ATP 10 µM).
Experimental: as §1, with “In addition, the binding amount of CTLA4 per unit amount of antibody was calculated by correcting the amount of CTLA4 bound as calculated from the sensorgram obtained by the assay with the amount of antibody captured onto the chip surface.” left out

Binder	fold enhancement of binding ability against the parent antibody 04H1207-G1m/04L1086-lam1 [fold]	fold enhancement of binding ability against the parent antibody 04H1208-G1m/04L1086-lam1 [fold]
B7	~10	
B9		~10

What follows are binders tested against T1, human CTLA4 (soluble analyte of the …) (assay: SPR 37C, Ab on Protein G, 1000 nM CTLA4, no ATP).
Experimental: as §1, with “Next,” for “Biacore T200 was used to measure the binding of the generated antibodies to human CTLA4. 20 mM ACES (pH 7.4), 150 mM NaCl, 2 mM MgCl₂, 0.05% Tween 20 with ATP added to the desired concentration was used as the running buffer, and the assay was performed at 37° C. First, Protein G (CALBIOCHEM) was immobilized onto a Series S Sensor Chip CM3 (GE Healthcare), and the antibodies were captured by interacting an antibody solution prepared in an ATP-free running buffer with the chip. Next,”
as §3

Binder	Binding to Human CTLA4 (amount per unit antibody)
B7	0.022
B2	0.003
B5	0.01
B8	0.03

These binders were tested against T1, human CTLA4 (soluble analyte of the …) (assay: SPR 37C, Ab on Protein G, 1000 nM CTLA4, ATP 1 uM).
Experimental: as §1, with “Next,” for “Biacore T200 was used to measure the binding of the generated antibodies to human CTLA4. 20 mM ACES (pH 7.4), 150 mM NaCl, 2 mM MgCl₂, 0.05% Tween 20 with ATP added to the desired concentration was used as the running buffer, and the assay was performed at 37° C. First, Protein G (CALBIOCHEM) was immobilized onto a Series S Sensor Chip CM3 (GE Healthcare), and the antibodies were captured by interacting an antibody solution prepared in an ATP-free running buffer with the chip. Next,”
as §3

Binder	Binding to Human CTLA4 (amount per unit antibody)
B7	0.138
B2	0.022
B5	0.037
B8	0.12

What follows are binders tested against T1, human CTLA4 (soluble analyte of the …) (assay: SPR 37C, Ab on Protein G, 1000 nM CTLA4, ATP 100 uM).
Experimental: as §1, with “Next,” for “Biacore T200 was used to measure the binding of the generated antibodies to human CTLA4. 20 mM ACES (pH 7.4), 150 mM NaCl, 2 mM MgCl₂, 0.05% Tween 20 with ATP added to the desired concentration was used as the running buffer, and the assay was performed at 37° C. First, Protein G (CALBIOCHEM) was immobilized onto a Series S Sensor Chip CM3 (GE Healthcare), and the antibodies were captured by interacting an antibody solution prepared in an ATP-free running buffer with the chip. Next,”
as §3

Binder	Binding to Human CTLA4 (amount per unit antibody)
B7	0.193
B2	0.139
B5	0.166
B8	0.151
